Measurements as given in PMC3088709, “Phosphorylation of the Yeast γ-Tubulin Tub4 Regulates Microtubule Function” (PLoS ONE, 2011).

B1: Tub4 (yeast gamma-tubulin), wild type, untagged [S. cerevisiae] / Spc97-3HA [S. cerevisiae] (parent complex)
chain 1: MGGEIITLQAGQCGNHVGKFLWSQLAKEHAIGTDGLSQLPDSSTERDDDTKPFFRENSRNKFTPRAIMMDSEPSVIADVENTFRGFFDPRNTWVASDGASAGNSWANGYDIGTRNQDDILNKIDKEIDSTDNFEGFQLLHSVAGGTGSGLGSNLLEALCDRYPKKILTTYSVFPARSSEVVVQSYNTILALRRLIEDSDATVVFDNASLLNISGKVFRNPNIDLQHTNQLISTIISSVTNSIRFPSYMYSSMSSIYSTLIPSPELHFLSPSFTPFTSDYIHDDIAHKGHSSYDVMLDLLDPSNSLVSTAMNNPTYFNVYNTIIGNVEPRQISRAMTKLQQRIKFPSWSSSAMHVNIGRRSPYLPLQPNENEVSGMMLSNMSTVVNVFENACNTFDKVFAKGAFLNNYNVGDLFQSMQNVQDEFAESREVVQSLMEDYVAAEQDSYLDDVLVDDENMVGELEEDLDADGDHKLV
chain 2: MEIKEVDDRAELLRYTNNIPLLGKLVNHQPLWSTNPKLKSFSLEKISAPDQRRVQEALVVKDLLNVLIGLEGTYIRYFNDYEPSDPETPIEFKIAKKMDPSFKTFSRRIVRYGKQYMILTRAYEKWSDTSFGMVLQRFAYEIRRFLEDVYLKTLVERLERDFNKVPNFSIRELEQIINETEVNKQMELLYNIYEEIFREIEERRTNQSSQEDFNNFMDSMKNESSLHLRLMVAFDTTVYPVPKGGAILKIFQQKILENLGDRSSVMFLKKLLNNISQDYCTMLYEWLTQGILNDPYQEFMTYDDLEGKTDNIFDTRDRAWDTQYFIRKDVLLRDCDSEEDKNLLFKMLRTGILLKVVRASLQIPTIPSNSSDITIQEINDFADLMEGSNLELYVDKCYSRANEIFLKLFFQGYDLINVLKHLQQIFLGYQSGHNVLKFLTKNMGELTKHYRNDNNANYDKLLQNFELERQSENPNNLMRQLLMIQFDTETLPQVLSHYLQIYPEVPENNSANDDSDPLMHANNFKNMNAILFDELSKERTGAYHGSNLELYTPKSAIYHLKFDINIPYPLNIIISRTCMIKYQIILRYQLVLQYHSRLLDETWMDLNKTPSWKYRGYSHTVKRRIVRATRVLHAKMNHFIKTIMEYFNQNVIDKEVYSLEKCYRNPTLAVAIQNELEGGLTNIMTNRCLSDLIPLQLQIFDIVYKFCKFIKSMRAKLCQLDPVLYEKHKSGMMKTLNEGYRTNNGGQEDVGYQEDAALELIQKLIEYISNASSIFRKCLINFTQELSTEKFDFYDSSSVDAAGIERVLYSIVPPRSASASSQR

Variants of: B1
Assay: co-immunoprecipitation (anti-HA IP of Spc97-3HA), quantified immunoblot; TUB4-AID SPC97-3HA cells, IAA for 2 h at 30°C; normalized to precipitated Spc97-3HA; parent: 1; read off a plot

ratio to parent | Variant
~0.41 | chain 1 MGGEIITLQAGQCGNHVGKFLWSQLAKEHAIGTDGLSQLPDSSTERDDDTKPFFRENSRNKFTPRAIMMDSEPSVIADVENTFRGFFDPRNTWVASDGASAGNSWANGYDIGTRNQDDILNKIDKEIDSTDNFEGFQLLHSVAGGTGSGLGSNLLEALCDRYPKKILTTYSVFPARSSEVVVQSYNTILALRRLIEDSDATVVFDNASLLNISGKVFRNPNIDLQHTNQLISTIISSVTNSIRFPSYMYSSMSSIYSTLIPSPELHFLSPSFTPFTSDYIHDDIAHKGHSSYDVMLDLLDPSNSLVSTAMNNPTYFNVYNTIIGNVEPRQISRAMTKLQQRIKFPSWSSSAMHVNIGRRDPYLPLQPNENEVSGMMLSNMSTVVNVFENACNTFDKVFAKGAFLNNYNVGDLFQSMQNVQDEFAESREVVQSLMEDYVAAEQDSYLDDVLVDDENMVGELEEDLDADGDHKLV [chain 1 S360D]
~0.63 | chain 1 MGGEIITLQAGQCGNHVGKFLWSQLAKEHAIGTDGLSQLPDSSTERDDDTKPFFRENSRNKFTPRAIMMDSEPSVIADVENTFRGFFDPRNTWVASDGAEAGNSWANGYDIGTRNQDDILNKIDKEIDSTDNFEGFQLLHSVAGGTGSGLGSNLLEALCDRYPKKILTTYSVFPARSSEVVVQSYNTILALRRLIEDSDATVVFDNASLLNISGKVFRNPNIDLQHTNQLISTIISSVTNSIRFPSYMYSSMSSIYSTLIPSPELHFLSPSFTPFTSDYIHDDIAHKGHSSYDVMLDLLDPSNSLVSTAMNNPTYFNVYNTIIGNVEPRQISRAMTKLQQRIKFPSWSSSAMHVNIGRRSPYLPLQPNENEVSGMMLSNMSTVVNVFENACNTFDKVFAKGAFLNNYNVGDLFQSMQNVQDEFAESREVVQSLMEDYVAAEQDSYLDDVLVDDENMVGELEEDLDADGDHKLV [chain 1 S100E]
